Where “and” joins values, the source holds several entries; their conditions need not be identical. Equal entries are not always repeated. Blank lines part the entries; values can stand above or below the molecule they belong to.
Tests used:
[1] = target: His6-tagged BiP (residues 27–655) (UniProt P20029); assay: pull-down; Ni-NTA pull-down of His6-tagged BiP protein (4 µM) with 4 µM Strep-tagged or untagged GRP94 protein; 60 min at 37 °C, 50 mM HEPES pH 7.5, 50 mM NaCl, 2 mM MgCl2, 50 µM ATP, 3 µM BSA; Coomassie bands quantified
[2] = target: Strep–linker–TEV site–GRP94 (73–802) (UniProt P08113); assay: negative-stain EM; 16 µM BiP and 32 µM HT2 reacted with 32 µM HyT36, 30 min at 37 °C with 50 µM ATP, then 16 µM GRP94 Δ72; GraFix (5–45% glycerol, 0.5% glutaraldehyde), fraction 12; single-particle negative stain, models fitted with Rosetta at 20 Å
BiP-E243K = BiP-E243K (UniProt P20029); assay: pull-down; Ni-NTA pull-down of His6-tagged BiP protein (4 µM) with 4 µM Strep-tagged or untagged GRP94 protein; 60 min at 37 °C, 50 mM HEPES pH 7.5, 50 mM NaCl, 2 mM MgCl2, 50 µM ATP, 3 µM BSA; Coomassie bands quantified
[3] = target: the molecule itself; assay: cross-linking; XL-MS: DSBU crosslinking (4 µM each), high-molecular-weight SDS–PAGE bands digested and analysed by LC–MS/MS, 5% FDR on residue pairs; GRP94 Δ72^noPT samples with 100 µM PU-WS13

- percent reduction of GRP94 bound, against GRP94 Δ72 with its tag [1]: 65%
Molecule: GRP94 Δ72^noPT (from UniProt P08113 73-802) (domain or fragment)

- percent reduction of GRP94 Δ72 copurified, against the wild-type pair [1]: 85%
Molecule: GRP94-K463E (Strep-tagged GRP94 Δ72 interface I mutant) (from UniProt P08113 73-802) (domain or fragment)

- percent reduction of GRP94 Δ72 copurified, against the wild-type pair [1]: 85%
Molecule: GRP94-K467E (Strep-tagged GRP94 Δ72 interface I mutant) (from UniProt P08113 73-802) (domain or fragment)

- stoichiometry N (BiP per GRP94 dimer) [2]: 1 and 2
Molecule: His6-tagged BiP (residues 27–655) (from UniProt P20029 27-655) (natural protein)

- percent decrease of binding, against GRP94 Δ72 [1]: 30%
Molecule: Strep-tagged GRP94 Δ72-R116G interface II mutant (from UniProt P08113 73-802) (domain or fragment)

- percent reduction of GRP94 Δ72 copurified, against the wild-type pair (BiP-E243K): 85%
- stoichiometry N [2]: 2
Molecule: Strep–linker–TEV site–GRP94 (73–802) (from UniProt P08113 73-802) (domain or fragment)

- percent less GRP94 pulled down, against GRP94 Δ72 [1]: 75%
B1: Strep-tagged GRP94 FL (residues 23–802) (natural protein, mouse (cDNA of C2C12 cells), UniProt P08113 23-802, looked up)
chain: DEVDVDGTVEEDLGKSREGSRTDDEVVQREEEAIQLDGLNASQIRELREKSEKFAFQAEVNRMMKLIINSLYKNKEIFLRELISNASDALDKIRLISLTDENALAGNEELTVKIKCDKEKNLLHVTDTGVGMTREELVKNLGTIAKSGTSEFLNKMTEAQEDGQSTSELIGQFGVGFYSAFLVADKVIVTSKHNNDTQHIWESDSNEFSVIADPRGNTLGRGTTITLVLKEEASDYLELDTIKNLVRKYSQFINFPIYVWSSKTETVEEPLEEDEAAKEEKEESDDEAAVEEEEEEKKPKTKKVEKTVWDWELMNDIKPIWQRPSKEVEEDEYKAFYKSFSKESDDPMAYIHFTAEGEVTFKSILFVPTSAPRGLFDEYGSKKSDYIKLYVRRVFITDDFHDMMPKYLNFVKGVVDSDDLPLNVSRETLQQHKLLKVIRKKLVRKTLDMIKKIADEKYNDTFWKEFGTNIKLGVIEDHSNRTRLAKLLRFQSSHHSTDITSLDQYVERMKEKQDKIYFMAGSSRKEAESSPFVERLLKKGYEVIYLTEPVDEYCIQALPEFDGKRFQNVAKEGVKFDESEKTKESREATEKEFEPLLNWMKDKALKDKIEKAVVSQRLTESPCALVASQYGWSGNMERIMKAQAYQTGKDISTNYYASQKKTFEINPRHPLIRDMLRRIKEDEDDKTVMDLAVVLFETATLRSGYLLPDTKAYGDRIERMLRLSLNIDPEAQVEEEPEEEPEDTSEDAEDSEQDEGEEMDAGTEEEEEETEKESTEKDEL
notes: cloned from C2C12 complementary DNA into pET21d; also called Strep–GRP94 FL; FL GRP94 wild-type protein; source: E. coli BL21(DE3), purified (StrepTrap HP, SEC); not shown: Strep, N-terminal, kept
- binding result [3]: binds
